Measured values reported in patent US8580492B2, “Screening method for the identification of inhibitors of HIV Tat methylation by the lysine methyltransferase Set7/9” (priority 2007, dated 2013).
Ends that are not written are not given here.

T1: recombinant Set9 (Homo sapiens, UniProt Q8WTS6)
T1 construct: purchased Upstate
T1 sequence (Q8WTS6 whole entry, looked up): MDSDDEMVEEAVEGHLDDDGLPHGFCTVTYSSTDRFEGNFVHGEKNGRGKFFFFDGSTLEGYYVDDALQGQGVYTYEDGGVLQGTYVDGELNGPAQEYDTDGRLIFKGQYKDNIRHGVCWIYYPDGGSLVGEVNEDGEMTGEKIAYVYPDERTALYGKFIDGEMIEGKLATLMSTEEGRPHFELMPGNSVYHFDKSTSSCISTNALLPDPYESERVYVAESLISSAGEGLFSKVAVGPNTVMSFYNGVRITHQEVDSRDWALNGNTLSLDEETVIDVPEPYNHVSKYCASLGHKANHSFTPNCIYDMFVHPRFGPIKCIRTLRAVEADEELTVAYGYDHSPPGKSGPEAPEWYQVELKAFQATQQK

T2: p300 (Homo sapiens, UniProt Q09472)
T2 construct: Recombinant GST-p300 HAT was expressed in the BL21 strain of Escherichia coli; GST (N); made in house; host or cells: Escherichia coli BL21
T2 sequence (Q09472 1287-1663 limits assumed): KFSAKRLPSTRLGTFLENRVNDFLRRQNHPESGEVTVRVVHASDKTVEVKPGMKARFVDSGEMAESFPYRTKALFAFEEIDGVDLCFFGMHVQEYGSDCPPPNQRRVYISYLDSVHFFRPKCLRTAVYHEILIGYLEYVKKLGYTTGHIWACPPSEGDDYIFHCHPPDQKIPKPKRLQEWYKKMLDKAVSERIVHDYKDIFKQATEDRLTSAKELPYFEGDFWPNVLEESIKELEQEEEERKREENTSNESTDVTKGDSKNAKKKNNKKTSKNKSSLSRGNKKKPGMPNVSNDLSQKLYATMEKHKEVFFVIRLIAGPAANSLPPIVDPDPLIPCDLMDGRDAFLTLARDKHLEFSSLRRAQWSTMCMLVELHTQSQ


Tests used:
Type in all cases: biochemical
recombinant Set9 = biological target: T1, recombinant Set9; assay: In vitro methylation assay with recombinant Set9 (radiolabeled SAM autoradiography; MALDI-TOF with nonradioactive SAM); conditions: confirmed by MALDI-TOF
Description: (§1) Methylation assays were performed as described. (Nishioka et al. (2002) supra. In brief, 2 μg of calf thymus histones (Sigma), synthetic Tat protein or recombinant GST-IκBα were incubated with 0, 0.5, 1 or 2 μg of recombinant Set9 (specific activity 182 mU/mg, Upstate) or 0, 1 and 2 μg of G9a (specific activity 98 mU/mg, Upstate) in a buffer containing 50 mM TrisHCl pH 8.5, 5 mM MgCl2, 4 mM DTT and 1.1 μCi of ^3H-labeled S-adenosyl methionine (SAM) (Perkin Elmer) 30 min at 30° C. Reactions were stopped with sodium dodecyl sulfate (SDS) sample buffer and fractionated in a 15% SDS-polyacrylamide gel electrophoresis (SDS-PAGE) gel. After Coomassie staining and destaining, gels were treated with Amplify (Amersham Biosciences) for 30 min, dried and exposed to hyper-film (Kodak) overnight. The reactions performed with Tat peptides contained 100 μM of the different peptides and 1 μg of Set9 enzyme and were fractionated in a 10-20% Tris-Tricine gel (BioRad). For mass-spectrometry analysis, reactions were performed in the presence of 2 mM SAM (New England Biolabs) and analyzed in a MALDI-TOF instrument. In vitro acetylation assays were performed as described. Ott et al. (1999) supra.

p300 = biological target: T2, p300; assay: In vitro acetylation assay with recombinant p300 and 14C-AcCoA; conditions: recombinant p300, 14C-AcCoA, autoradiography
Description: Recombinant GST-p300 HAT was expressed in the BL21 strain of Escherichia coli and purified on glutathione-Sepharose beads (Amersham Pharmacia Biotech) following manufacturer's protocol.
as §1

G9a = assay: In vitro methylation assay with recombinant G9a; conditions: recombinant G9a 0, 1 and 2 μg, radiolabeled SAM
Description: as §1

Molecule	methylation by Set9 (recombinant Set9)	acetylation by p300 (p300)	methylation by G9a (G9a)
K50Ac: ARM peptide carrying an acetyl group at position 50 (ISYGRK(Ac)KRRQRRRP; not fully specified)	No methylation		
K51me: ARM peptide monomethylated at K51 (ISYGRKK(Me)RRQRRRP)		acetylated	
Tat protein: full-length synthetic Tat protein (72 amino acids) (peptide, UniProt P04608 1-72, looked up, fragment) MEPVDPRLEPWKHPGSQPKTACTNCYCKKCCFHCQVCFITKALGISYGRKKRRQRRRAHQNSQTHQASLSKQ	methylated in response to increasing amounts of Set9 enzyme		did not result in methylation
